Test results: US10947270B2, “Targeted prodrug cytosine deaminase fusion carrier and application thereof” (National Yang-Ming University, priority 2015, dated 2021)
“And” between values parts separate entries of the source, which are not always exact repeats. Equal entries are not always repeated. Where two headings read alike, the source gives them in different places.

Experiments:
[1] = Enzyme kinetic analysis of EcCD series fusion proteins, substrate 5-FC; type: biochemical; conditions: for Kcat/Km higher than that of the corresponding WT protein: substrate 5-FC
Source text: (§1) FIGS. 11A-11D show the activity and kinetics analysis of EcCD series fusion protein enzymes, and the EcCD series proteins are combined with 5-FC at different concentrations for reaction. Respectively calculate the 5-FU formation reaction rate shown in FIG. 11A, 5-FC consumption reaction rate shown in FIG. 10B, uracil formation reaction rate shown in FIG. 10C and cytosine consumption reaction rate shown in FIG. 10D, substitute Michaelis-Menten formula, and calculate the base mass (Kcat) and Km value catalyzed by each mol enzyme in unit time.

[2] = Enzyme kinetic analysis of EcCD series fusion proteins, substrate cytosine; type: biochemical; conditions: for Kcat/Km lower than that of the corresponding WT protein: substrate cytosine
Source text: as §1, with “time. […]” for “time.”

[3] = Relative substrate selectivity of cytosine deaminase enzyme for 5-FC and cytosine (formula 1); type: biochemical; conditions: for [Kcat/Km(5-FC)]/{[Kcat/Km(cytosine)] + [Kcat/Km(5-FC)]}: relative substrate selectivity to 5-FC
Source text: Evaluation of the relative substrate selectivity of cytosine deaminase enzyme for 5-FC and Cytosine can be expressed by the following formula 1,
The higher the value, the higher the selectivity of the enzyme to the 5-FC substrate.

[4] = test system: U87MG, HUVEC and MCF-7 cells; test: Immunofluorescence of binding and distribution of EcCD fusion proteins in cells; type: cell-based, human; conditions: 37° C., 2 hours
Protocol: FIGS. 15A-15C show the binding and distribution of EcCD fusion proteins in U87MG, HUVEC and MCF-7 cell strain. The immunofluorescence staining is used to observe and experiment the EcCD fusion protein, which are respectively acted with U87MG cells in FIG. 15A, HUVEC cells in FIG. 15B and MCF-7 cells in FIG. 15C for 2 hours at 37° C., then fixed with 2% para-formadehyde, the fixed cells are first permeabilized with 0.1% Triton X-100 for 10 minutes, after that, cultured with 1% BSA blocking (dissolved in PBS containing Ca^2+, Mg^2+) for 1 hour at room temperature, then add a 1st antibody (Rabbit anti-His^6tag, Mouse anti-human CD51/61αvβ3 integrin), and then add a 2nd antibody (Anti-rabbit IgG-CF640R, Anti-mouse IgG-Alexa488), the protein distribution is observed by conjugated fluorescence microscope. (Green signal: αvβ3 integrin; red signal: anti-His^6tag; blue signal: Hoechst 33342 cell nucleus stain) (Scale bars: 20 μm)
Immunofluorescence is used to observe the distribution of the protein bound with cell in the cell. U87MG, HUVEC and MCF-7 cells act with culture medium containing EcCD_WT, RGD4C-EcCD_WT, EcCD_D314A and RGD4C-EcCD_D314A proteins at 37° C. for 2 hours, stain the cell, and observe protein distribution by the conjugated fluorescence microscopy.

[5] = literature, Biochemistry 2004, 43, 8957-8964; cited from earlier work
[6] = target: αvβ3 integrin (Homo sapiens, UniProt P05106+P06756); test: ELISA binding of EcCD series fusion protein and αvβ3 integrin
Source text: FIGS. 13A-13B show the binding activity and specificity test of EcCD fusion protein and αvβ3 integrin receptor. […] (***compared with untreated RGDfv group, P value<0.001, indicating a statistically significant difference)
To confirm the binding ability of RGD4C peptide and αvβ3 integrin, the affinity of the protein and αvβ3 integrin is confirmed by ELISA method. […] This experiment confirms that RGD4C-EcCD_WT and RGD4C-EcCD_D314A have the binding activity of αvβ3 integrin, and this binding has the specificity of RGD4C peptide αvβ3 integrin.

[7] = test system: U87MG, HUVEC cells; test: RGDfv peptide competition of EcCD fusion protein binding to cells; type: cell-based, human; conditions: RGDfv peptide at 10-fold relative concentration
Protocol: FIGS. 14A-14E show the binding activity and specificity test of EcCD fusion protein and U87MG, HUVEC and MCF-7 cell strain. […] (***compared to the untreated RGDfv group, P value<0.001, indicating a statistically significant difference)
It is confirmed from the above experimental results that the EcCD series protein fused to the RGD4C peptide has the binding activity with the expressing αvβ3 integrin cell strain, and the binding has the specificity of the RGD4C peptide and αvβ3 integrin of the cell expression, and also confirmed that the D314A mutation will not affect the binding activity of the RGD4C peptide and αvβ3 integrin.

[8] = 5-FC consumption (Table 5), listed as RGD4C-EcCDWT
[9] = 5-FU generation, listed as RGD4C-EcCDWT
[10] = cytosine consumption, listed as RGD4C-EcCDWT
[11] = uracil generation, listed as RGD4C-EcCDWT
[12] = RGDfv peptide at 10-fold concentration
[13] = RGDfv peptide at same concentration

αvβ3 integrin, sequence (P06756 31-889 limits assumed): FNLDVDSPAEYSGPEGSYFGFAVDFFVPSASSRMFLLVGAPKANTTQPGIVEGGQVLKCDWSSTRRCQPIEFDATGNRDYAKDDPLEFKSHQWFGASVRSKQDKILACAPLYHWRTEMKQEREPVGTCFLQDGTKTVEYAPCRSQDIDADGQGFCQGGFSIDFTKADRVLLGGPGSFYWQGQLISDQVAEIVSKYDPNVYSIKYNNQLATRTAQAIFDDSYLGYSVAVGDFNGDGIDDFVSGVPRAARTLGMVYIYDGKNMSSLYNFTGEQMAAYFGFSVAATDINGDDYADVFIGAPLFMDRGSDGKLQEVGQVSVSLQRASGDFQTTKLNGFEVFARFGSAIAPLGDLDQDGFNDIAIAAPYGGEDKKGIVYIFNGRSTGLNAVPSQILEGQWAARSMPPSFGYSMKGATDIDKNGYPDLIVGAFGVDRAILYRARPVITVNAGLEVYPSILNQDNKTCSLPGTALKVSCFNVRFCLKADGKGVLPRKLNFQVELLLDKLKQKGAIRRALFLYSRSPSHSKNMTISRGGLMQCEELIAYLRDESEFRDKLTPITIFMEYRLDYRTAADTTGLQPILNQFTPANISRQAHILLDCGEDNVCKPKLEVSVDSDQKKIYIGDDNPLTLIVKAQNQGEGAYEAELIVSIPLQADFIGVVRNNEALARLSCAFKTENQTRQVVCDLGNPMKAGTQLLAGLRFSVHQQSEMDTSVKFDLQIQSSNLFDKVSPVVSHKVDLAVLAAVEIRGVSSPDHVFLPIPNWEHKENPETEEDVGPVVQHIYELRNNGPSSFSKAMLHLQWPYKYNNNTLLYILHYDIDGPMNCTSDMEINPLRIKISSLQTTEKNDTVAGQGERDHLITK
αvβ3 integrin, sequence (P06756 891-1048 partner limits assumed): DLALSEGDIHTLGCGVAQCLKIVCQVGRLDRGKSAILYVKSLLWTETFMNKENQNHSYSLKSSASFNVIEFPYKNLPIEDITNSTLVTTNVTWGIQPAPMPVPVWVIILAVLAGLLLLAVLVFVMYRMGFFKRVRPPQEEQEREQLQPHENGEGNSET
αvβ3 integrin, sequence (P05106 27-788): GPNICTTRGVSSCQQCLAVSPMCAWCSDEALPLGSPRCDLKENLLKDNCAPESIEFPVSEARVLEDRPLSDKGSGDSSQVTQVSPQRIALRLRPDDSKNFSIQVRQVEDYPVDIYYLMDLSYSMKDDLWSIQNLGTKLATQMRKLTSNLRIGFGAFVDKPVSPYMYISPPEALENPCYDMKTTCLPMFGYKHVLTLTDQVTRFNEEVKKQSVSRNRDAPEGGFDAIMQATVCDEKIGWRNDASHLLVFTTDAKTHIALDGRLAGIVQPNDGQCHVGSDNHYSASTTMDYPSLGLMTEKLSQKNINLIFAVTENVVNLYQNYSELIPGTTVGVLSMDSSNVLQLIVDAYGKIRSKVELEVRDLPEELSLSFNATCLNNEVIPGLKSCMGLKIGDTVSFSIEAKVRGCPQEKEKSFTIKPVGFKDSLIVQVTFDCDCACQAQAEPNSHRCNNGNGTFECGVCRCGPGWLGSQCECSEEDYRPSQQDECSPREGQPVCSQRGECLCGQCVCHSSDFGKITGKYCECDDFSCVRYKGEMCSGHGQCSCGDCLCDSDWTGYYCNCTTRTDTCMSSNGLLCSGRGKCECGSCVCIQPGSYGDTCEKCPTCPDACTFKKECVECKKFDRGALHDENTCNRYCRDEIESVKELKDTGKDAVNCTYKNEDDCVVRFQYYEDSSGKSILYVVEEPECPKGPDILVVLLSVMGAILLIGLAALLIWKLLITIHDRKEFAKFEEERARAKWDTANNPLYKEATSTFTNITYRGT

Row | Molecule | Kcat ([1]; 5-FC consumption (Table 5)) | Km ([1]; 5-FC consumption (Table 5)) | Kcat ([1]; 5-FU generation) | Km ([1]; 5-FU generation) | Kcat ([2]; cytosine consumption) | Km ([2]; cytosine consumption) | Kcat ([2]; uracil generation) | Km ([2]; uracil generation) | [Kcat/Km(5-FC)]/{[Kcat/Km(cytosine)] + [Kcat/Km(5-FC)]} [3] | binding with cells [4] | [Kcat/Km(5-FC)]/{[Kcat/Km(cytosine)] + [Kcat/Km(5-FC)]} [5] | Kcat/Km higher than that of the corresponding WT protein [1] | Kcat/Km lower than that of the corresponding WT protein [2] | relative substrate selectivity to 5-FC higher than the corresponding WT protein [3] | inhibition of binding capacity by RGDfv peptide [6, 12] | inhibition of binding capacity by RGDfv peptide [6, 13] | inhibition of binding by RGDfv peptide competition [7] | internalization [4] | other results
1 | EcCD_WT: E. coli. cytosine deaminase (EcCD), wild type, without target molecule (protein, EcCD_WT, E. coli. cytosine deaminase (EcCD), wild type, without target molecule) MSNNALQTIINARLPGEEGLWQIHLQDGKISAIDAQSGVMPITENSLDAEQGLVIPPFVEPHIHLDTTQTAGQPNWNQSGTLFEGIERWAERKALLTHDDVKQRAWQTLKWQIANGIQHVRTHVDVSDATLTALKAMLEVKQEVAPWIDLQIVAFPQEGILSYPNGEALLEEALRLRADVVGAIPHFEFTREYGVESLHKTFALAQKYDRLIDVHCDEIDDEQSRFVETVAALAHHEGMGARVTASHTTAMHSYNGAYTSRLFRLLKMSGINFVANPLVNIHLQGRFDTYPKRRGITRVKEMLESGINVCFGHDDVFDPWYPLGTANMLQVLHMGLHVCQLMGYGQINDGLNLITHHSARTLNLQDYGIAAGNSANLIILPAENGFDALRRQVPVRYSVRGGKVIASTQPAQTTVYLEQPEAIDYKRLEHHHHHH | 9.2 ± 0.8 s⁻¹ and 8.8 ± 0.8 s⁻¹ | 2800 µM and 2700 µM | 8.8 ± 0.9 s⁻¹ and 9.2 ± 0.6 s⁻¹ | 2900 ± 800 µM | 132.0 ± 5.0 s⁻¹ | 1300 ± 100 µM | 157.3 ± 2.4 s⁻¹ | 1600 µM and 1700 µM | 0.032 | do not have the ability of binding with U87MG and HUVEC cells | 0.027 | – | – | – | – | – | – | – | [Kcat/Km(5-FC)]/{[Kcat/Km(cytosine)] + [Kcat/Km(5-FC)]} ([3]; listed as EcCDWT): 0.033
2 | EcCD_D314A: E. coli. cytosine deaminase (EcCD) mutant D314A, without target molecule (protein, EcCD_D314A, E. coli. cytosine deaminase (EcCD) mutant D314A, without target molecule) MSNNALQTIINARLPGEEGLWQIHLQDGKISAIDAQSGVMPITENSLDAEQGLVIPPFVEPHIHLDTTQTAGQPNWNQSGTLFEGIERWAERKALLTHDDVKQRAWQTLKWQIANGIQHVRTHVDVSDATLTALKAMLEVKQEVAPWIDLQIVAFPQEGILSYPNGEALLEEALRLRADVVGAIPHFEFTREYGVESLHKTFALAQKYDRLIDVHCDEIDDEQSRFVETVAALAHHEGMGARVTASHTTAMHSYNGAYTSRLFRLLKMSGINFVANPLVNIHLQGRFDTYPKRRGITRVKEMLESGINVCFGHDAVFDPWYPLGTANMLQVLHMGLHVCQLMGYGQINDGLNLITHHSARTLNLQDYGIAAGNSANLIILPAENGFDALRRQVPVRYSVRGGKVIASTQPAQTTVYLEQPEAIDYKRLEHHHHHH | 35.1 ± 1.7 s⁻¹ and 36.2 ± 1.5 s⁻¹ | 3800 µM and 4000 µM | 36.2 ± 1.8 s⁻¹ and 35.4 ± 0.8 s⁻¹ | 3900 ± 600 µM | 22.3 ± 1.6 s⁻¹ | 2600 ± 400 µM | 24.5 ± 1.1 s⁻¹ | 3000 µM and 3100 µM | 0.558 and 0.535 | do not have the ability of binding with U87MG and HUVEC cells | 0.513 | about 3.1 times | about 12.5 times | about 17.4 times | – | – | – | – | –
3 | RGD4C-EcCD_WT: targeted prodrug enzyme fusion protein (SEQ ID NO: 19) (protein, RGD4C_EcCD_WT) MGCDCRGDCFCMSNNALQTIINARLPGEEGLWQIHLQDGKISAIDAQSGVMPITENSLDAEQGLVIPPFVEPHIHLDTTQTAGQPNWNQSGTLFEGIERWAERKALLTHDDVKQRAWQTLKWQIANGIQHVRTHVDVSDATLTALKAMLEVKQEVAPWIDLQIVAFPQEGILSYPNGEALLEEALRLRADVVGAIPHFEFTREYGVESLHKTFALAQKYDRLIDVHCDEIDDEQSRFVETVAALAHHEGMGARVTASHTTAMHSYNGAYTSRLFRLLKMSGINFVANPLVNIHLQGRFDTYPKRRGITRVKEMLESGINVCFGHDDVFDPWYPLGTANMLQVLHMGLHVCQLMGYGQINDGLNLITHHSARTLNLQDYGIAAGNSANLIILPAENGFDALRRQVPVRYSVRGGKVIASTQPAQTTVYLEQPEAIDYKRLEHHHHHH | 10.7 ± 0.5 s⁻¹ | 2300 ± 400 µM | 10.8 ± 0.6 s⁻¹ | 2300 ± 500 µM | 148.9 ± 4.7 s⁻¹ | 1700 ± 200 µM | 141.7 ± 5.5 s⁻¹ | 1500 ± 200 µM | 0.047 | have the ability of binding with U87MG and HUVEC cells | – | – | – | – | about 80% | about 30% | about 50% | will enter the internalization | Kcat [1, 8]: 10.9 ± 0.5 s⁻¹; Km [1, 8]: 2400 ± 400 µM; Kcat [1, 9]: 10.8 ± 0.5 s⁻¹; Km [1, 9]: 2400 ± 500 µM; Kcat [2, 10]: 143.9 ± 5.1 s⁻¹; Km [2, 10]: 1600 ± 200 µM; Kcat [2, 11]: 150.8 ± 4.4 s⁻¹; Km [2, 11]: 1700 ± 100 µM; [Kcat/Km(5-FC)]/{[Kcat/Km(cytosine)] + [Kcat/Km(5-FC)]} ([3]; listed as RGD4C- EcCDWT): 0.048
4 | RGD4C-EcCD_D314A: targeted prodrug enzyme fusion protein (SEQ ID NO: 20) (protein, RGD4C_EcCD_D314A) MGCDCRGDCFCMSNNALQTIINARLPGEEGLWQIHLQDGKISAIDAQSGVMPITENSLDAEQGLVIPPFVEPHIHLDTTQTAGQPNWNQSGTLFEGIERWAERKALLTHDDVKQRAWQTLKWQIANGIQHVRTHVDVSDATLTALKAMLEVKQEVAPWIDLQIVAFPQEGILSYPNGEALLEEALRLRADVVGAIPHFEFTREYGVESLHKTFALAQKYDRLIDVHCDEIDDEQSRFVETVAALAHHEGMGARVTASHTTAMHSYNGAYTSRLFRLLKMSGINFVANPLVNIHLQGRFDTYPKRRGITRVKEMLESGINVCFGHDAVFDPWYPLGTANMLQVLHMGLHVCQLMGYGQINDGLNLITHHSARTLNLQDYGIAAGNSANLIILPAENGFDALRRQVPVRYSVRGGKVIASTQPAQTTVYLEQPEAIDYKRLEHHHHHH | 38.6 ± 1.0 s⁻¹ and 39.1 ± 1.0 s⁻¹ | 3500 ± 200 µM | 39.4 ± 1.1 s⁻¹ and 38.4 ± 0.8 s⁻¹ | 3500 µM and 3400 µM | 17.7 ± 1.3 s⁻¹ | 3000 µM and 2900 µM | 21.7 ± 4.8 s⁻¹ | 3800 ± 1700 µM | 0.648 | have the ability of binding with U87MG and HUVEC cells | – | about 2.4 times | about 15.5 times | about 13.8 times | about 80% | about 30% | about 50% | will enter the internalization | [Kcat/Km(5-FC)]/{[Kcat/Km(cytosine)] + [Kcat/Km(5-FC)]} ([3]; listed as RGD4C- EcCD_D314A): 0.664
